Measurements: the supplement of paper PMC9170038

Columns and labels:
MS2 coat protein = assay: apparent KD of MS2 coat protein; higher = weaker reporter binding; settings: Eterna round: R107
Protocol: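 RNA-MaP round R107: designed RNA switches with theophylline, tryptophan, arginine or FMN aptamers are transcribed on-chip within common flanks. They are titrated with SNAP-549-labelled MS2 coat protein in RNA-MaP buffer (100 mM Tris pH 7.5, 80 mM KCl, 4 mM MgCl2), without ligand or with the indicated ligand. Median apparent KD per design.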

[1] = test system: K4 kissing-loop RNA reporter; assay: apparent KD of K4 kissing-loop reporter; higher = weaker reporter binding; settings: Eterna round: R107;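 note: bound reporter read as fluorescence of individual clusters on recovered sequencing chips by microscopy, with normalized cluster intensities fitted with a binding model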
Protocol: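 RNA-MaP round R107: designed RNA switches with theophylline, tryptophan, arginine or FMN aptamers are transcribed on-chip within common flanks. They are titrated with a labelled K4 kissing-loop RNA reporter in RNA-MaP buffer (100 mM Tris pH 7.5, 80 mM KCl, 4 mM MgCl2), without ligand or with the indicated ligand. Median apparent KD per design.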

[2] = input ligand: theophylline 20 uM
[3] = input ligand: theophylline 2 mM
[4] = input ligand: tryptophan 2.4 mM

| Sequence | apparent KD of MS2 coat protein (MS2 coat protein; input ligand: arginine 13.2 mM) | apparent KD of MS2 coat protein (MS2 coat protein; input ligand: none) | apparent KD of MS2 coat protein (MS2 coat protein; [2]) | apparent KD of MS2 coat protein (MS2 coat protein; [3]) | apparent KD of MS2 coat protein (MS2 coat protein; [4]) | apparent KD of K4 kissing-loop reporter ([1]; input ligand: FMN 200 uM) | apparent KD of K4 kissing-loop reporter ([1]; input ligand: arginine 13.2 mM) | apparent KD of K4 kissing-loop reporter ([1]; input ligand: none) | apparent KD of K4 kissing-loop reporter [1, 2] | apparent KD of K4 kissing-loop reporter [1, 4] |
| --- | --- | --- | --- | --- | --- | --- | --- | --- | --- | --- |
| AGUCUUGUGGGAAGGAGCGCAUACUUCACAUGAGGAUCACCCAUGUCAAGACGUGAGUCAGUGCAGGUAGGUCGCCUAACUAAGA [Same State - Arginine B (Freestyle 15)] | 53.1 nM | 30.3 nM | 37.4 nM | 35.8 nM | 28.2 nM | – | – | – | – | – |
| UACAUGAGGAUCACCCAUGUCCCAUGUGAACGAGGACCGGUACGGCCGCCACUCGAAUAAGGCGGCACAUGAGGAUCACCCACAU [AstrosSSTry#2] | 283 nM | – | 352 nM | 399 nM | – | – | – | – | – | – |
| UACCCAUAGGGAAGGAGCGCGCUAACAUGAGGAUCACCCAUGUAAAGGGUUUCUGGCUUAGCGCAGGUAGGUCGCCCUAUGGGUA [#10 Exclusion - Arginine B] | 196 nM | 238 nM | 400 nM | 1050 nM | 654 nM | – | – | – | – | – |
| CCUCACAUGAGGAUCACCCAUGUCUUUACACGAGGACCGGUACGGCCGCCACUCGUUCACAAAACAACCAGAAGUGAUGCCUACA [theeternabot_sameState_MS2_Trp_A_14] | 80.2 nM | – | 183 nM | 214 nM | – | – | – | – | – | – |
| CCUCGACAUGAGGAUCACCCAUGUAGAGAUACCAGCCUGUGAGAUGGCCCUUGGCAGCUCAUAUAGGGUACGGGAGUCGUUUCGA [Eslaqu] | 19.4 nM | 22.2 nM | 48.4 nM | 263 nM | 22.1 nM | – | – | – | – | – |
| GACAAUAAUUCAACAAUCAAAAUAGUGGGACGAGGACCGGUACGGCCGCCACUCGCUGAAGCACAUGAGGAUCACCCAUGUCUAA [theeternabot_exclusion_MS2_Trp_A_47] | 14.8 nM | – | 19.8 nM | 18.7 nM | – | – | – | – | – | – |
| GCCUAGCAGCGAAGGAGCGACAUCGGCGCAUGCGAGGACAUGAGGAUCACCCAUGUACCAUGUCAGGUAGGUCGCGCUGCUAGGC [EAB NP+V+V2 #6] | 17.9 nM | 23.4 nM | 36.4 nM | 23.2 nM | 24.5 nM | – | – | – | – | – |
| ACACACAUGAGGAUCACCCAUGUAAUAGAUACCAGUGACGCGGUGCACCCUUGGCAGCUGCUGCUGAGUGAUGGUUCCCUCGGAA [Exclusion Theophylline A GF7] | 16.8 nM | – | 25.9 nM | – | 19.2 nM | – | – | – | – | – |
| UCGUAGGUAGGAAGGAGCGCAUACUUCACAUGAGGAUCACCCAUGUCGAGACGUGAGUCAGUGCAGGUAGGUCGCCUAGUUAUGA [Same State - Arginine B (Freestyle 24)] | 19.6 nM | 41.1 nM | 36.2 nM | 40.2 nM | 29.2 nM | – | – | – | – | – |
| AGACUACUGAUAGGAUAUAACAUACUAACUCGUAUACCAAAGGUAUACGAGACCCUUCUAGUGAUGUUAGAAGGGUCGGUAGUCA [Omei KL FMN B Exc B v6] | – | – | – | – | – | 82.2 nM | 74 nM | 76.3 nM | 74.8 nM | 73.9 nM |
| AACGCAAGUUGUCUGGUAGACAUUUCAGAUACCAGACAUAGUGAUGUCCCUUGGCAGCUGAACAUCCAGUGAUGUUGGAUACGUU [Theo A SS t11a] | – | – | – | – | – | 444 nM | 394 nM | 513 nM | 507 nM | 400 nM |
| CUCAGAAAGACUGUCCAAGUGAUGUUUGGACGAGGACCGGUACGGCCGCCACUCGCUGUUGCGAAUGUUAAGGUACGAGUCGCGG [theeternabot_exclusion_KL_Trp_A_30] | – | – | – | – | – | 84.8 nM | 89.7 nM | 89.1 nM | 101 nM | 91.7 nM |
| UAGUCCUAGUGAUCGUUAUCAAGUGGUGGGCGAGGACCGGUACGGCCGCCACUCGACUAUGCAGUGAUGUUGCAAUCCGGACAAU [Exclusion - Tryptophan A (Freestyle 14)] | – | – | – | – | – | 209 nM | 238 nM | 222 nM | 254 nM | 213 nM |
| CCUAUCUCAUACGAUACCAGUCUACGAUAUUUUAUCGUUGCCAACACCGAGUGAUGUUCGGACCCUUGGCAGCGUAUGGGAUAGG [#03 K4 Theophylline B Exclusion] | – | – | – | – | – | 159 nM | 129 nM | 143 nM | 138 nM | 136 nM |
| AUUAAUUUCAGAGGAUAUCGUUAUUUUUUAUAUUUUAUUCAUUUAUGCAGUGAUGUUGCUAUUAAUCGAGAAGGCUGAUUUAUAA [JR_ExcFMNB_Sub003] | – | – | – | – | – | 85.5 nM | 114 nM | 47.1 nM | 120 nM | 49.4 nM |
| UUUAUUAAGACGGCCGCCACUGAUUCAUAGUGAUGUUAUGAUAUAAUUUUAGUGAUUUUGAUUAGCAGGACCGGGUCAAUUAUUA [JR_ExcTryptoB_Sub016] | – | – | – | – | – | 221 nM | 179 nM | 196 nM | 194 nM | 172 nM |
